{"source": "paper doi:10.1101/2021.07.03.450947", "about": "“The pore conformation of lymphocyte perforin” (bioRxiv, 2021)", "proteins": {"B1": {"name": "TMH1-lock mutant of perforin (A144C-W373C) (natural protein, mouse, UniProt P10820 21-554, looked up)", "chain": "PCYTATRSECKQKHKFVPGVWMAGEGMDVTTLRRSGSFPVNTQRFLRPDRTCTLCKNSLMRDATQRLPVAITHWRPHSSHCQRNVAAAKVHSTEGVAREAAANINNDWRVGLDVNPRPEANMRCSVAGSHSKVANFAAEKTYQDQYNFNSDTVECRMYSFRLVQKPPLHLDFKKALRALPRNFNSSTEHAYHRLISSYGTHFITAVDLGGRISVLTALRTCQLTLNGLTADEVGDCLNVEAQVSIGAQASVSSEYKACEEKKKQHKMATSFHQTYRERHVEVLGGPLDSTHDLLFGNQATPEQFSTWTASLPSNPGLVDYSLEPLHTLLEEQNPKREALRQAISHYIMSRARCQNCSRPCRSGQHKSSHDSCQCECQDSKVTNQDCCPRQRGLAHLVVSNFRAEHLWGDYTTATDAYLKVFFGGQEFRTGVVWNNNNPRWTDKMDFENVLLSTGGPLRVQVWDADYGWDDDLLGSCDRSPHSGFHEVTCELNHGRVKFSYHAKCLPHLTGGTCLEYAPQGLLGDPPGNRSGAVW", "modifications": "engineered disulphide bond between A144C and W373C", "notes": "perforin, mouse, with the engineered disulphide A144C-W373C that tethers TMH1 to the core of the MACPF domain; also called A144C-W373C perforin; source: baculovirus/insect cell system, purified from the supernatant"}}, "target": "the molecule itself", "assay": "cryo-electron tomography; prepores on liposomes (PC, cholesterol, biotinyl PE 6:3:1) held on streptavidin grids; 20 mM HEPES pH 7.5, 150 mM NaCl, 5 mM CaCl2; 5-10 min at 37°C; protein to lipid about 1:10,000", "data": [{"protein": "B1", "values": [{"measurement": "binding result", "result": "binds"}]}]}
